Measurements published in the nanobody polyreactivity screen of Harvey et al. (2022).

assay: yeast display, Sf9 membrane polyspecificity reagent, FACS + sequencing; frameworks hold sequencing errors
Summary of the method: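 Polyreactivity labels are assigned by the sorting gate from which each nanobody was recovered. The gates were low and high (top ~1%), set on anti-HA fluorescence for expression and streptavidin fluorescence for reagent binding. Before sorting, galactose-induced (36–48 hours) yeast display cells were stained for 1 hour at 4 °C with 10% biotinylated, detergent-solubilized Sf9 membrane reagent.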

Row | Sequence | polyreactivity (PSR sort gate)
1 | QVQLEESGVGLVQAGGSLRLSCAASGFTFYYNAMGWYRQAPGKERELVAGITWSGGSTYYADSVKGRFTISRDNAKNTVYLQMNSLKPEDTAVYYFAKDHQDSDYDYWGQGTQVTVSS | high polyreactivity
2 | QVQLVESGGGLVQAGGSLRLSSAASGFTFRYYAMGWYRQAPGKERELVAAISWSGGRTYYADSVKGRFTISRDNAKYTVYLQMNILKPEDTAVYYCAADGYPYFYGDFDYSGQGTQVTVSS | high polyreactivity
3 | QVQLVESGGGLVQAGGSLRLSCAASGTFAGNAMGWYRQAPGKERELVAAITTGGRTYYADSVKRRFTISRDNAKNTLYIQMNSLKPEDTAVYYCAADRIRDLEFDYWGQGTQVTVSS | low polyreactivity
4 | QVQLVESGGGLVQAGGSLRLSCAASGRIFYLNAMGWYRQAPGKERELVATISSGGSTNYADSVKGRFTISRDNAKNTVYLQMNSLKPEDTAVYYCARKSLRYSYVYRDYWGQGTQVTVSS | low polyreactivity
5 | QVQLVESGGGLVQAGGSLRLSCAASGGTFYGYAAMGWYRQAPGKERELVAAISRSGGRTYYADSVKGRFTISRDNAKNTVYLQMNSLKPEDTAVYYCAARRAYSRPPRDYWGQCTQVTVSS | high polyreactivity
6 | QVQLVESGGGLVQAGGSLRISCAASGFIFRYYTMGWYRQAPGKERELVATITSGGSTYYADSVKGRFTISRDNAKNTVYLQMNSLKPEDTAVYYCAKVRDVLWRFNYWGQGTEVTVSS | high polyreactivity
7 | QVQLVDSGGRLVHAGGSLRLSCAASGRTIYRNAMGLYRQAPGKERELVAAISSDDSTNYSDSVKGRFTISRDNAKNTVYFQMNSLKPEDTAVYYCNADYYYGYDYDYWGQGSQVTVSS | low polyreactivity
8 | QVQLVESGGGLVQAGGSLRLSCAASGRTFFYNTMGWYRQAPGKERELVAAITSSGGRTSYADSVKGRFTISRDNAKNTVYLQMNSLKPEDTAVYYCAALYSYYSLYDDYDYWGQGTQVTVSS | high polyreactivity
9 | QVQLVESGGGLVQAGGSLRLSCAASGITLLYYAMGWYRQAPGKERELVAVIDWSGGDTYYADSVKGRFTISRDNAKNTVYLQMNSLKPEDTAVYYCARGSRLVYRRSGFDYWGQGTQVTVSS | low polyreactivity
10 | QVQLVESGGGLVQAGGSLRLSCAASGSIYRYAMGWYRQAPGKERELVASISRRGGSTYYADSVKGRFTISRDNAKNTVYLQMNSLKPEDTAVYSCNAYGYSFGYDYWGQGTQVTVSS | high polyreactivity
11 | QVQLVETGGGLVQAGGILRLSCAASGRIFGYNTMGWYRQAPGKERELVARISYDVDSTYYADSVKGRFTISRDNAKNTVYLQMNSLKPEDTAVYYCNARRSNLGSYIEYFGFDYWGQGTQVTVSS | low polyreactivity
12 | QVQLVESGGGLVQAGGSLRLSCAASGGTFPYYAMGWYRQAPGKERELVAAISSSGGRTYYADSVKGRFTISRDNAKNTVYLQMNSLKPEDTAVYYCAKDTYGFAANRPAGDGYWGQGTQVTVSS | high polyreactivity
13 | QVQLVESGGGLVQAGGSLRLSCAASGSIFYSYAMGWYRQAPGKERELVASISDGSSTYADSVKGRFTISRDNAKNTVYLQMNSLKPEDTAVYYCNADATDSYPEKDEHDSWGQGTQVTVSS | low polyreactivity
14 | QVQLVESGGGLVQAGGSLRLSCAASGRTFVPYVMGWYRQAPGKESELVASITSGGSTYYADSVKGRFTISRDNAKNTVYLQMNSLKPEDTAVYYCATRQSAERWGYYYWGQGTQVTVSS | low polyreactivity
15 | QVQLVESGGGLVHAGGSLRLSCAACGNIFKYYTMGWYREAPGKERELVDAITSGGRTNYADSVKGRFTISRDNAKNTVYLKMNSLKPEDTAVYYCAAYDVIYSQGFDYWGQGTQVTVSS | low polyreactivity
16 | QVQLVESGGGLVQAGGSLRLRCAASGSTFASYAMGGYRQAPGKERELVAAITRSGGSTYYADSVKGRFTISRVKAKNTVYLQMNSLKPEDTAVYYCARRAVYGIFDYWGQGTQVTVSS | high polyreactivity
17 | QVQLEESGGGLVQAGGSIRLSCAASGSTFYTNAMGWYRQAPGKERELVAAISSSGDSTYYADSVKGRFTISRDTAKNTVYLQMNSLKPEDTAVYYCNADRRSYNGFRYYYWGQGTQVTVSS | low polyreactivity
18 | QVQLVESGGGLVQAGGSLRLSCAASGNIFGLYAMGWYRQAPGTERELVAAISFSDTSTYYADSVKGRYTISRDNAKNTVYLQMNSLKPEDTAVYYCAAELWFNNGEHNYWGQGTQVTVSS | high polyreactivity
19 | QVQLVESGGGLVQAGGSLRLSCAASGSIFDYNAMGWYRQAPGKERELVAAISVSGGSTYYADSVKGRFTISRDNAKNTVYLQMNSLKPEDTAVYYCAAETWTYGWSYDYWGQGTQVTVSS | high polyreactivity
20 | QVQLVESGGGLVQAGGSLRLSCAASGLTFDWNTMGWYRQAPGKERELVATITYTGGSTYYADSVKGRFTISRDNAKNTVYLQMNSLKPEDTAVYFCAARRTRYRSYSRVRYTYDYWGQGTQVTVSS | high polyreactivity
21 | QVQLVESGGGLVQAGGSLRISCAASGFIFTRYVMGWYSQAPGKERELVAGISTRGARTYYADSVKGRFTISRDNAKNTVYLQMNSLKPEDTAVYYCAKDYYKHYYWGQGTQVTVSS | high polyreactivity
22 | QVQLVESGGGLVQAGGSIRLSCAASGRTFYPNAMGWYRQAPGKERELVAVISSGGNTDYADSVKGRFTISRDNAKNTVYLQMYSLKPEDTAVYYCNTDTTVVSHYRSYWWGAGYDYWGQGTQVTVSS | low polyreactivity

Row | Sequence | polyreactivity (PSR sort gate)
23 | HVQLVESGGGLVQARGSLRLSCAASGRTSWYYAMGWYRQAPGKEKELVAAITASGGSTYADSVKGRFTISRDNAKNTVYLEMNSLKPEDTAVYYCAAERPYSRVGYYYWGQGTQVTVSS | high polyreactivity
24 | QVQLVESGGGLVQAGGSLRLSCAASGRTFDIYAMGWYRQAPGKERELVAAISSGGSTYYADSVKGRFTISRDNAKNTVYLQMNSLKPEDTAVYYCAVRWYDQVSRRGIGYYWGQGTQVTVSS | low polyreactivity
25 | QVQLVESGGGLVQAGGSLRLRCAASGSIFNSYAMGWSRQAPGKERELVAAISIRGTRTYYADSVKGRFTISRDNAKNTVYLQMNSLKPEDTAVYYCAADASYTEGMDYWGQGTQVTVSS | high polyreactivity
26 | QVQLVESGGGLVQAGGSLRLSCAASGSIFSPYAMGWYRQAPGKERELVATITWSGGSTYYADSVKGRFTISRDNAKNTVYLQMNSLKPEDTAVYYCAATRSGYTSYTDDSWGQGTQVTVSS | high polyreactivity
27 | QVQLVESGGGLVQAGGSLRLSCAASGGTFGSNAMGWYRPAPGKERELVAAISTTGGTTYYADSVKGRFTISRDNAKNTVYLQMNSLKPEDPAVYYCAKDGYVYGDWYTYAYDYWGQGTQVTVSS | low polyreactivity
28 | QVQLVESGGGLVQAGGSLRLSCAAYGSIISYTMGWYRQAPGKERELVAAITSGRITYYADSVKGRFTISRDNAKNTVSLQMNRLKQEDTAVYYCNNDVGFTRPLYYWGQGTQVTVSS | low polyreactivity
29 | QVQLVESGGGLVQAGGSLRLRCAASGFNHKPMGCYRQAPGKERELVAAISYSAGSTYYADSVKGRFTISRDNAKNTVYLQMNSLKPEDTAVYYCDIRYNYFTGTLSRYYSNIYGYWGQGTQVTVSS | high polyreactivity
30 | QVQLVESGGGLVQAGGSLRLSCAASGRIFARYAMGWYRQAPGKERELVAAITKSVGSTYYADSVKGRFTISRDNAKNTVYLQMNSLKPEDTAVYYCNAVARGYGYDYWGQGTQVTVSS | high polyreactivity
31 | QVQLVESGGGLVQAGGSLRISCAASGIIFVWNAIGWYRQAPGKERELVADISWSSGRTYYADSVKGRFTISRDNAKNTVYLQMNSLIPEDTAVYYCATDDFWNVIFYAYYPEFDYWGQGTQVTVSS | low polyreactivity
32 | QVQLVESGGGLVQAGGSLRLSCAASGSIFPYNAMGWYRQAPGKEREFVAAITYSGGSTYYADSVKGRFTISRDNAKNTVYLQMNSLKPEDTAVYYCAAGYSSRGSRDGYWGQGTQVTVSS | low polyreactivity
33 | QVQLVESGGGLVQSGGSLRLSCAASGSIFIGNTMGWYRQAPGKERELVATIRRSGSRTYYADSVKGRFTISRDNAKHTVYLQMNSLKPEDTAVYYCAAVRLRTSGYKTIYDYWGQGTQVTVSS | low polyreactivity
34 | QVQLVESGGGLVQAGGSLRLSCAASGRTFKYYTMGWYRQAPGKEREFVAAITSSGGRTYYADSVKGRFTISRDNAKNTVYLQMNSLKPEDTAVYYCAASTYRVWLAPATLSRYDYWGQGTQVTVSS | high polyreactivity
35 | QVQLVESGGGLVQAGGSLRLSCAASGITLTKNAMGWYRQAPGKERELVAGITRGSRTNYADSVKGRFTISRDNAKNTVYLQMNSLKPEDTAVYYCAASYWPYRGPVGGSKMYYWGQGTQVTVSS | high polyreactivity
36 | QVQLVESGGGLVQAGGSLRLSCAASGITFDNYAMGWYRQAPGKEWELVAAISSDDNTTYADSVKGRFTISRDNAKNTVYLQMNSLKPEDSAVYYCAADSRIYGYWEYDYCGQGTQVTVSS | low polyreactivity
37 | QVQLVESGGGLVQAGGSLRLSCAASGRIFRTNAMGWYRQAPGKERELVASINSDGSTNYADSVKGRFTISRDNAKNTVYLQMNSLKPDDTAVYYCAAGYFWGRIKYYYWGQCTQVTVSS | high polyreactivity
38 | QDQLLESGGGLGQAGGSLRLSCAASGITFGRYAMGWYRQAPGKERELVAAITWGGGSTYYADSVKGRFTISRDNAKNTVYLQMNSLKPEDTAVYYCAARSYGRWFGGYDSWGQGTQVTVSS | high polyreactivity
39 | QVQHVESGGGLVQAGGSLRLSCAASGSIFRRYTMGWYRQAPGKERELVAAISRVGNTNYADSVKGRFTISRDNAKNTVYLQMNSLKPEDTAVYYCAARAIGYRYTPGLNYWGQGTQVTVSS | high polyreactivity
40 | QVQLVESGGGLVQAGGSLRLSCAASGSTFAVNVMGWYRQAPGKERELVATITYRDGRTYYADSVKGRFTISRDNAKNTVYLQMNSLKPEDTAVYYCAADDEYKQEAEMDSWGQGTLVTVSS | low polyreactivity
41 | QVQLVESGGGLVQAGGSLRLSCAASGSTIGIYAMGGYRQAPGKERELVAAISSGGSTNYGDSVKGRFTISRDNEKNTVYLQMNSLKQEDTAVYYCAVESVYEYGGYVDSAYDYWGQGTQVTVSS | low polyreactivity
42 | QVQLVESGRGLVQAGGSLRLSCAASGLTFRVYAMGWYRQAPGKERELVAAITGGGGSTYADSVKGRFTISRDNAKNTVYLQMNSLKPQDTAVYYCNKKGYYYKFDYWGQGTQVTVSS | low polyreactivity
43 | QVQLVESGGGLDQAGGSLRLSCAASASIFQRSAKCWYRQAPGKETELVAAITNGGGSTYYADSVKGRFTISRDNAMNTVYLQMNSLKPEDTAVYYCAKDGHSYYPWEYDYWVQGTQVTVSS | low polyreactivity
